Assay results published in the supplement of paper PMC9170038.

Key:
MS2 coat protein [1] = experiment: apparent KD of MS2 coat protein, switch ON state; designed switch direction (-1 OFF switch, 1 ON switch): -1; higher = weaker reporter binding; settings: FMN input: 0 or 200 uM; Eterna round: R93 (includes R88 designs)
Procedure, shortened: (§1)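 Titration buffer: 100 mM Tris-HCl pH 7.5, 80 mM KCl, 4 mM MgCl2, without or with constant ligand. Designed RNA switches transcribed on-chip from Illumina sequencing clusters received SNAP-549-labelled MS2 coat protein in twofold steps from 0.7 or 1.5 nM to 3 µM. Apparent KD is the median per design of fits to normalised cluster binding curves.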

MS2 coat protein [2] = experiment: apparent KD of MS2 coat protein, switch OFF state (with FMN for OFF switches, without FMN for ON switches); designed switch direction (-1 OFF switch, 1 ON switch): -1; higher = weaker reporter binding; settings: FMN input: 0 or 200 uM; Eterna round: R93 (includes R88 designs)
Procedure, shortened: as §1

AAUAUCGGAGGAUAUGCAUAGAUAAAGAACCAUGUUAAAACACAUGAGGAUCACCCAUGUAGAAGGCCGAUAAA [AJ 9]
apparent KD of MS2 coat protein (MS2 coat protein [1]): 0.0541 µM | apparent KD of MS2 coat protein (MS2 coat protein [2]): 0.0775 µM

GAAGAACAUGAGGAUCACCCAUGUGAGGAUAUACAGAAGGGAAUAAAAUAACCUGAAAGUAGAAGGCACAAGAA [Ex 1 May 41]
apparent KD of MS2 coat protein (MS2 coat protein [1]): 0.0457 µM | apparent KD of MS2 coat protein (MS2 coat protein [2]): 0.0658 µM

CAAAAGGAAGGAUAUACAUAAUAAAACGGGCGGGCACCUUGACAUGAGGAUCACCCAUGUAGAAGGUCCAAUAA [Ramaanan]
apparent KD of MS2 coat protein (MS2 coat protein [1]): 0.0169 µM | apparent KD of MS2 coat protein (MS2 coat protein [2]): 0.0181 µM

AAAAAACAUGAGGAUCACCCAUGUGAGGAUAUGCGAAACAAAAAAAACAAAAACAAAAGCAGAAGGCACAAAAA [Amethyst 33]
apparent KD of MS2 coat protein (MS2 coat protein [1]): 0.025 µM | apparent KD of MS2 coat protein (MS2 coat protein [2]): 0.0257 µM

AAACAACAUGAGGAUCACCCAUGUUAGGAUAUGAACGAAAUAAAAUAAAAAUAAAAGUUCAGAAGGGACAAAAA [Mat - Exclusion 1 - Eli mod - D21]
apparent KD of MS2 coat protein (MS2 coat protein [1]): 0.0234 µM | apparent KD of MS2 coat protein (MS2 coat protein [2]): 0.0256 µM

AAAAAGUGAGGAUAUACGUUGAAAAAAAAAAAAAAAAAGCGGUAGAAGGCACAUGAGGAUCACCCAUGUAAAAA [Ex4 Malc#4]
apparent KD of MS2 coat protein (MS2 coat protein [1]): 0.0327 µM | apparent KD of MS2 coat protein (MS2 coat protein [2]): 0.0225 µM

AAAGAGUCAGGAUAUUCGUAUAGAGUAGCGCGACUCUAUACGAAGAAGGGACAUGAGGAUCACCCAUGUAAAAA [Ecls4-I]
apparent KD of MS2 coat protein (MS2 coat protein [1]): 0.0506 µM | apparent KD of MS2 coat protein (MS2 coat protein [2]): 0.0511 µM

GAAACACAUGAGGAUCACCCAUGUCAGGAUAUUCAAACAAAAACAAAACAAAACAAACGAAGAAGGGACAAAAG [Mat - Same state - Mayanna Mod - D102]
apparent KD of MS2 coat protein (MS2 coat protein [1]): 0.027 µM | apparent KD of MS2 coat protein (MS2 coat protein [2]): 0.0326 µM

CCUGUGUGAGGAUAUGGUAAAAAAAAAAAAAAAUAGCUCCUCCAGAAGGCACAUGAGGAUCACCCAUGUCGUGG [Jolly's Folly 16 - Jieux - Exclusion 4]
apparent KD of MS2 coat protein (MS2 coat protein [1]): 0.0376 µM | apparent KD of MS2 coat protein (MS2 coat protein [2]): 0.0739 µM

CUCUAGUUAGGAUAUCGAAGAAAAGAAAAGAAAGAAAAGAACGAGAAGGAACAUGAGGAUCACCCAUGUAAGAA [EteRNA is fun!]
apparent KD of MS2 coat protein (MS2 coat protein [1]): 0.0291 µM | apparent KD of MS2 coat protein (MS2 coat protein [2]): 0.028 µM

AUGUACCUAGGAUAUACAUGAGGAUCACCCAUGUAUUGGGAGCAAUCCAGUUAAUAUUGUAGAAGGAGGUGAAA [JR_Exc003_Sub317]
apparent KD of MS2 coat protein (MS2 coat protein [1]): 0.0381 µM | apparent KD of MS2 coat protein (MS2 coat protein [2]): 0.065 µM

AAAACGGCAGGAUAUACAGAUGAGAACUCGACCGAAAAAAAACAUGAGGAUCACCCAUGUAGAAGGGCCAAAAA [Ex2 Malc#6]
apparent KD of MS2 coat protein (MS2 coat protein [1]): 0.0301 µM | apparent KD of MS2 coat protein (MS2 coat protein [2]): 0.0619 µM

AAAUUGUCAGGAUAUCGUAGAAUAGUGAAAAACUAGAGCUACGAGAAGGGACAUGAGGAUCACCCAUGUAAAAC [May 92]
apparent KD of MS2 coat protein (MS2 coat protein [1]): 0.0433 µM | apparent KD of MS2 coat protein (MS2 coat protein [2]): 0.0544 µM

GAGAGGGCAGGAUAUGCGGAGAGAGAGAGAGAGAGAGAGAGACAUGAGGAUCACCCAUGUAGAAGGGCCGAGAG [salish99-ex2-09]
apparent KD of MS2 coat protein (MS2 coat protein [1]): 0.0623 µM | apparent KD of MS2 coat protein (MS2 coat protein [2]): 0.0281 µM

AACAGUACAGGAUAUACAUGAGGAUCACCCAUGUAAAAAUAAAAGGGAAUCUCAAAAAGUAGAAGGGUACUGGA [Moding Maslow revisited (73) 13]
apparent KD of MS2 coat protein (MS2 coat protein [1]): 0.0725 µM | apparent KD of MS2 coat protein (MS2 coat protein [2]): 0.0363 µM

AAAAAACAUGAGGAUCACCCAUGUGAGGAUAUCGAAAAAAAAAUAAAAAUAAAACAUACGAGAAGGCACACCAA [Amethyst 59]
apparent KD of MS2 coat protein (MS2 coat protein [1]): 0.0305 µM | apparent KD of MS2 coat protein (MS2 coat protein [2]): 0.0357 µM

AAAAAGGGAGGAUAUACAUGAGGAUCACCCAUGUAAAAAAUCGCGGGAGGGAGGGAAGGUAGAAGGCCCAAAAA [Excls3-V]
apparent KD of MS2 coat protein (MS2 coat protein [1]): 0.0201 µM | apparent KD of MS2 coat protein (MS2 coat protein [2]): 0.0155 µM

AAAAAGAGAGGAUAUACAUGAGGAUCACCCAUGUGAAAGACGAAAAAAAGUCUAAAAAGUAGAAGGCUCAAAAA [65%, Moding Exclusion3-cac2, 12]
apparent KD of MS2 coat protein (MS2 coat protein [1]): 0.0171 µM | apparent KD of MS2 coat protein (MS2 coat protein [2]): 0.0225 µM

AAAAAUGGAGGAUAUACAUGAGGAUCACCCAUGUGUAACUAUACUAAGCACAAAAAAAGUAGAAGGCCAAAAAA [Gilly Gone Silly 9 - Jieux - Exclusion 3]
apparent KD of MS2 coat protein (MS2 coat protein [1]): 0.0535 µM | apparent KD of MS2 coat protein (MS2 coat protein [2]): 0.0574 µM

AAAAAGUGAGGAUAUACAUGAGGAUCACCCAUGUGAAAGUCGAAAAAAAAGACAAAAAGUAGAAGGCACAAAAA [Fiskers Exclusion 3 D2]
apparent KD of MS2 coat protein (MS2 coat protein [1]): 0.0227 µM | apparent KD of MS2 coat protein (MS2 coat protein [2]): 0.0303 µM

GUGUACAGAGGAUAUAUAUGAGCAUGGAAACAUGCAUCCUCACAUGAGGAUCACCCAUGUAGAAGGCUGUACAC [Ex2: 704]
apparent KD of MS2 coat protein (MS2 coat protein [1]): 0.624 µM | apparent KD of MS2 coat protein (MS2 coat protein [2]): 0.0413 µM

GGAAAACAUGAGGAUCACCCAUGUGAGGAUAUCGAUGUCCAAAAGAAAGUGCGGGACUCGAGAAGGCACUUGGA [salish99-ex1-36]
apparent KD of MS2 coat protein (MS2 coat protein [1]): 0.0563 µM | apparent KD of MS2 coat protein (MS2 coat protein [2]): 0.0458 µM

AAAAAACAUGAGGAUCACCCAUGUGAGGAUAUGAACGAAAAUAAAUAAAAAUAAAAGUUCAGAAGGCACAAAAA [66%, Wbt, 10]
apparent KD of MS2 coat protein (MS2 coat protein [1]): 0.0422 µM | apparent KD of MS2 coat protein (MS2 coat protein [2]): 0.0479 µM

AAAAAGGGAGGAUAUACAGGAGGUAAGGUCAAAAAAAAAAAACAUGAGGAUCACCCAUGUAGAAGGUUUAAAAA [Ecls2-V]
apparent KD of MS2 coat protein (MS2 coat protein [1]): 0.0258 µM | apparent KD of MS2 coat protein (MS2 coat protein [2]): 0.031 µM

UCCGAACAUGAGGAUCACCCAUGUCAGGAUAUACACCCAGCAUGGAAGCCAUGCUCAAGUAGAAGGGACGGGUG [Inxeus]
apparent KD of MS2 coat protein (MS2 coat protein [1]): 0.0349 µM | apparent KD of MS2 coat protein (MS2 coat protein [2]): 0.0349 µM

AACAUGUCAGGAUAUGUAGCAUGAUACGAAAGUAUCAUGCUACAGAAGGGACAUGAGGAUCACCCAUGUGAUCA [Ex4: 940]
apparent KD of MS2 coat protein (MS2 coat protein [1]): 0.0267 µM | apparent KD of MS2 coat protein (MS2 coat protein [2]): 0.022 µM

AAAAAGUAAGGAUAUCUGGAUAGGAAAAAGAAAACCUAUCCAGAGAAGGUACAUGAGGAUCACCCAUGUAAAAA [Opal 30]
apparent KD of MS2 coat protein (MS2 coat protein [1]): 0.0208 µM | apparent KD of MS2 coat protein (MS2 coat protein [2]): 0.0141 µM

AGUUGGCGAGGAUAUACAUGAGGAUCACCCAUGUGAGAAAAAAAAGUGAGAAAGAAAAGUAGAAGGCGCUGACA [Mat - Exclusion 3 - Lego mod - D88]
apparent KD of MS2 coat protein (MS2 coat protein [1]): 0.0546 µM | apparent KD of MS2 coat protein (MS2 coat protein [2]): 0.314 µM

GCUGUCGUAGGAUAUACAUGAGGAUCACCCAUGUGAGAGAAAAAAGUGAGAAAGAAAAGUAGAAGGACGGUAGG [salish99-ex3-105]
apparent KD of MS2 coat protein (MS2 coat protein [1]): 0.0375 µM | apparent KD of MS2 coat protein (MS2 coat protein [2]): 0.0431 µM

AGGAUGUCAGGAUAUGUGUAAAGAAUAAAACAAAUAACAACACAGAAGGGACAUGAGGAUCACCCAUGUUAAAA [May 36]
apparent KD of MS2 coat protein (MS2 coat protein [1]): 0.0449 µM | apparent KD of MS2 coat protein (MS2 coat protein [2]): 0.054 µM

CUCAAGUAAGGAUAUGCAAGAAAAGAAAAGAAAGAAAAGAAGCAGAAGGUACAUGAGGAUCACCCAUGUAAGAA [EteRNA is fun!]
apparent KD of MS2 coat protein (MS2 coat protein [1]): 0.0254 µM | apparent KD of MS2 coat protein (MS2 coat protein [2]): 0.0423 µM

AACAUGUCAGGAUAUGUAGCAAAAGGUGAUCAAAAAAAGCUACAGAAGGGACAUGAGGAUCACCCAUGUAAAAA [Ex4: 934]
apparent KD of MS2 coat protein (MS2 coat protein [1]): 0.126 µM | apparent KD of MS2 coat protein (MS2 coat protein [2]): 0.0371 µM

AAAAUACAUGAGGAUCACCCAUGUGAGGAUAUGAGAAAGCAAAUAAAAUAAAGCAAACUCAGAAGGCACAAAAA [EX 1 May 25]
apparent KD of MS2 coat protein (MS2 coat protein [1]): 0.0395 µM | apparent KD of MS2 coat protein (MS2 coat protein [2]): 0.0502 µM

ACCUUACAUGAGGAUCACCCAUGUUAGGAUAUCUCGCUCUCGCAGUCACAGCGCAAGCAGAGAAGGGACACGGG [Maretien]
apparent KD of MS2 coat protein (MS2 coat protein [1]): 0.0326 µM | apparent KD of MS2 coat protein (MS2 coat protein [2]): 0.0366 µM

UAGAAGGUAGGAUAUACUUGGGAAACUAAUGCAAAGAUAUAACAUGAGGAUCACCCAUGUAGAAGGGCCAGUAA [JR_Exc002_Sub018]
apparent KD of MS2 coat protein (MS2 coat protein [1]): 0.114 µM | apparent KD of MS2 coat protein (MS2 coat protein [2]): 0.0979 µM

AAAAAGCGAGGAUAUACAUGAGGAUCACCCAUGUAAAAAAAAAAAAAGGGAAAAAAAAGUAGAAGGCGCAAAAA [Sekhemraneferkhau Wepwawetemsaf]
apparent KD of MS2 coat protein (MS2 coat protein [1]): 0.0432 µM | apparent KD of MS2 coat protein (MS2 coat protein [2]): 0.0487 µM

AAAAAACAUGAGGAUCACCCAUGUAAGGAUAUGCUCGUAAGUGCGAAAGCACAAAUGAGCAGAAGGUACAAAAA [66%, Wbt, 44]
apparent KD of MS2 coat protein (MS2 coat protein [1]): 0.0192 µM | apparent KD of MS2 coat protein (MS2 coat protein [2]): 0.031 µM

AAAAAAGGAGGAUAUACGAACAUGUCGAAAGACGUGAAGGGACAUGAGGAUCACCCAUGUAGAAGGUCUAAAAA [Mat - Exclusion 2 - JL mod - D87]
apparent KD of MS2 coat protein (MS2 coat protein [1]): 0.0307 µM | apparent KD of MS2 coat protein (MS2 coat protein [2]): 0.0299 µM

AAAACUGGAGGAUAUACAUGAGGAUCACCCAUGUGUGGAUGAGCUGUGUCGGCAUCACGUAGAAGGCCACAAAA [Gilly Gone Silly 38 - Jieux - Exclusion 3]
apparent KD of MS2 coat protein (MS2 coat protein [1]): 0.0344 µM | apparent KD of MS2 coat protein (MS2 coat protein [2]): 0.0533 µM

ACCUGACAUGAGGAUCACCCAUGUGAGGAUAUGUACAUCAGGAAAAAAAAACUGAUGUACAGAAGGCACAAGGG [Amethyst 49]
apparent KD of MS2 coat protein (MS2 coat protein [1]): 0.0231 µM | apparent KD of MS2 coat protein (MS2 coat protein [2]): 0.0387 µM
